Measured values published in US20090092631A1 (TRIPEP, published 2009).
“And” between values parts separate entries of the source, which are not always exact repeats. Identical values can stand only once. Ends that are not written are not given here. * marks the point of attachment. Galα1‑3Galβ1‑O(CH2)3NH2 = OC[C@H]1O[C@H](O[C@H]2[C@@H](O)[C@@H](CO)O[C@@H](OCCCN*)[C@@H]2O)[C@H](O)[C@@H](O)[C@H]1O

What follows are binders tested against T1, LAI gp120 molecule (PerkinElmer, Denmark) (HIV-1 LAI, UniProt P03377 33-516) (assay: ELISA on coated LAI gp120, detection with 1:10 or 1:20 human serum).
T1 construct: domain: gp120; also called gp120 from LAI virus

Binder	lowest glycopeptide concentration at which binding was detected
DTKGPSKLNDRADSRR (not fully specified (residue 1), also called glycopeptide 5) [Gal-CD4-104]	10 ng/ml and ~5 nM
D(Galα1‑3Galβ1‑O(CH2)3NH2)QFHWKNSNQIKILGN (also called GP1; glycopeptide 1) [Gal-CD4-100]	~5 nM and 10 ng/ml
D(Galα1‑3Galβ1‑O(CH2)3NH2)QGSFLTKGPSKLNDR (also called GP4; glycopeptide 4) [Gal-CD4-103]	10 ng/ml and ~5 nM
DKLNDRADSRRSLWDQ (not fully specified (residue 1), also called GP6; glycopeptide 6) [Gal-CD4-105]	10 ng/ml and ~5 nM
DNSNQIKILGNQGSFL (not fully specified (residue 1), also called GP2; glycopeptide 2) [Gal-CD4-101]	~5 nM and 10 ng/ml
DKILGNQGSFLTKGPS (not fully specified (residue 1), also called GP3; glycopeptide 3) [Gal-CD4-102]	~5 nM and 10 ng/ml

Each binder was assayed against T2, gp120 of HIV-1 IIIB virus (HIV-1 IIIB, UniProt P04578 33-856) (assay: cell-based or functional assay).

Binder	decrease in the infectivity (RT activity day 11, H9 cells, HIV IIIB) at 0.01 µg/ml glycopeptide (approximately 5 nM) with 5 or 10% human serum [%]	neutralization (RT activity day 11, H9 cells, HIV IIIB) at 1 µg/ml glycopeptide with 5 or 10% human serum [%]	neutralization (inhibition of syncytia formation, U87 CD4+ CXCR4+ cells), peptide without serum [%]
DTKGPSKLNDRADSRR (not fully specified (residue 1), also called glycopeptide 5) [Gal-CD4-104]	> 50	90	< 40
D(Galα1‑3Galβ1‑O(CH2)3NH2)QFHWKNSNQIKILGN (also called GP1; glycopeptide 1) [Gal-CD4-100]			< 40
TKGPSKLNDRADSRR [non-glycosylated CD4 peptide, Seq. Id. No. 8]			< 40
NSNQIKILGNQGSFL [CD4 peptide alone, Seq. Id. No. 5 (non-glycosylated)]			< 40
QGSFLTKGPSKLNDR [CD4 peptide alone, Seq. Id. No. 7 (non-glycosylated)]			< 40
KILGNQGSFLTKGPS [CD4 peptide alone, Seq. Id. No. 6 (non-glycosylated)]			< 40
D(Galα1‑3Galβ1‑O(CH2)3NH2)QGSFLTKGPSKLNDR (also called GP4; glycopeptide 4) [Gal-CD4-103]	> 50	90	< 40
DKLNDRADSRRSLWDQ (not fully specified (residue 1), also called GP6; glycopeptide 6) [Gal-CD4-105]			< 40
KLNDRADSRRSLWDQ [non-glycosylated CD4 peptide, Seq. Id. No. 9]			< 40
DNSNQIKILGNQGSFL (not fully specified (residue 1), also called GP2; glycopeptide 2) [Gal-CD4-101]			< 40
DKILGNQGSFLTKGPS (not fully specified (residue 1), also called GP3; glycopeptide 3) [Gal-CD4-102]	> 50	90	< 40
QFHWKNSNQIKILGN [CD4 peptide alone, Seq. Id. No. 4 (non-glycosylated)]			< 40

Target: T2, gp120 of HIV-1 IIIB virus
Assay: cell-based or functional assay
Remark: another data set of the same source

Binder	percentage of neutralization of the virus (plaque assay, U87 CD4 cells, HIV-1 IIIB); glycosylated Sp. exchanger 0.1 ug/ml & 1:10 dilution human serum	percentage of neutralization of the virus (plaque assay, U87 CD4 cells, HIV-1 IIIB); glycosylated Sp. exchanger 0.1 ug/ml & 1:20 dilution human serum	percentage of neutralization of the virus (plaque assay, U87 CD4 cells, HIV-1 IIIB); glycosylated Sp. exchanger 1 ug/ml & 1:10 dilution human serum	percentage of neutralization of the virus (plaque assay, U87 CD4 cells, HIV-1 IIIB); glycosylated Sp. exchanger 1 ug/ml & 1:20 dilution human serum	percentage of neutralization of the virus (plaque assay, U87 CD4 cells, HIV-1 IIIB); glycosylated Sp. exchanger 1 ug/ml, no serum	percentage of neutralization of the virus (plaque assay, U87 CD4 cells, HIV-1 IIIB); glycosylated Sp. exchanger 10 ug/ml & 1:10 dilution human serum	percentage of neutralization of the virus (plaque assay, U87 CD4 cells, HIV-1 IIIB); glycosylated Sp. exchanger 10 ug/ml & 1:20 dilution human serum	percentage of neutralization of the virus (plaque assay, U87 CD4 cells, HIV-1 IIIB); glycosylated Sp. exchanger 10 ug/ml, no serum	percentage of neutralization of the virus (plaque assay, U87 CD4 cells, HIV-1 IIIB); glycosylated Sp. exchanger 0.1 ug/ml, no serum	percentage of neutralization of the virus (plaque assay, U87 CD4 cells, HIV-1 IIIB); CD4 peptide alone 0.1 ug/ml
DTKGPSKLNDRADSRR (not fully specified (residue 1), also called glycopeptide 5) [Gal-CD4-104]	0.778 fraction (0.3 equals 30%)	0.701 fraction (0.3 equals 30%)	0.821 fraction (0.3 equals 30%)	0.667 fraction (0.3 equals 30%)	0.548 fraction (0.3 equals 30%)	0.83 fraction (0.3 equals 30%)	0.642 fraction (0.3 equals 30%)	0.552 fraction (0.3 equals 30%)		
D(Galα1‑3Galβ1‑O(CH2)3NH2)QFHWKNSNQIKILGN (also called GP1; glycopeptide 1) [Gal-CD4-100]	0.48 fraction (0.3 equals 30%)	0.47 fraction (0.3 equals 30%)	0.48 fraction (0.3 equals 30%)	0.47 fraction (0.3 equals 30%)	< 0.3 fraction (0.3 equals 30%)	0.55 fraction (0.3 equals 30%)	0.48 fraction (0.3 equals 30%)	< 0.3 fraction (0.3 equals 30%)	< 0.3 fraction (0.3 equals 30%)	
NSNQIKILGNQGSFL [CD4 peptide alone, Seq. Id. No. 5 (non-glycosylated)]										< 0.3 fraction (0.3 equals 30%)
QGSFLTKGPSKLNDR [CD4 peptide alone, Seq. Id. No. 7 (non-glycosylated)]										< 0.3 fraction (0.3 equals 30%)
KILGNQGSFLTKGPS [CD4 peptide alone, Seq. Id. No. 6 (non-glycosylated)]										< 0.3 fraction (0.3 equals 30%)
D(Galα1‑3Galβ1‑O(CH2)3NH2)QGSFLTKGPSKLNDR (also called GP4; glycopeptide 4) [Gal-CD4-103]	0.439 fraction (0.3 equals 30%)	< 0.3 fraction (0.3 equals 30%)	0.461 fraction (0.3 equals 30%)	< 0.3 fraction (0.3 equals 30%)	< 0.3 fraction (0.3 equals 30%)	0.454 fraction (0.3 equals 30%)	< 0.3 fraction (0.3 equals 30%)	< 0.3 fraction (0.3 equals 30%)	< 0.3 fraction (0.3 equals 30%)	
DKLNDRADSRRSLWDQ (not fully specified (residue 1), also called GP6; glycopeptide 6) [Gal-CD4-105]	0.76 fraction (0.3 equals 30%)	0.71 fraction (0.3 equals 30%)	0.75 fraction (0.3 equals 30%)	0.75 fraction (0.3 equals 30%)	< 0.3 fraction (0.3 equals 30%)	0.78 fraction (0.3 equals 30%)	0.74 fraction (0.3 equals 30%)	< 0.3 fraction (0.3 equals 30%)	< 0.3 fraction (0.3 equals 30%)	
DNSNQIKILGNQGSFL (not fully specified (residue 1), also called GP2; glycopeptide 2) [Gal-CD4-101]	< 0.3 fraction (0.3 equals 30%)	< 0.3 fraction (0.3 equals 30%)	0.39 fraction (0.3 equals 30%)	0.32 fraction (0.3 equals 30%)	< 0.3 fraction (0.3 equals 30%)	0.49 fraction (0.3 equals 30%)	0.429 fraction (0.3 equals 30%)	< 0.3 fraction (0.3 equals 30%)	< 0.3 fraction (0.3 equals 30%)	
DKILGNQGSFLTKGPS (not fully specified (residue 1), also called GP3; glycopeptide 3) [Gal-CD4-102]	0.5 fraction (0.3 equals 30%)	< 0.3 fraction (0.3 equals 30%)	0.42 fraction (0.3 equals 30%)	< 0.3 fraction (0.3 equals 30%)		0.6 fraction (0.3 equals 30%)	< 0.3 fraction (0.3 equals 30%)		< 0.3 fraction (0.3 equals 30%)	
QFHWKNSNQIKILGN [CD4 peptide alone, Seq. Id. No. 4 (non-glycosylated)]										< 0.3 fraction (0.3 equals 30%)

Same assay, conditions: not given

Binder	percentage of neutralization of the virus (plaque assay, U87 CD4 cells, HIV-1 IIIB); CD4 peptide alone 1 ug/ml	percentage of neutralization of the virus (plaque assay, U87 CD4 cells, HIV-1 IIIB); CD4 peptide alone 10 ug/ml
NSNQIKILGNQGSFL [CD4 peptide alone, Seq. Id. No. 5 (non-glycosylated)]	< 0.3 fraction (0.3 equals 30%)	< 0.3 fraction (0.3 equals 30%)
QGSFLTKGPSKLNDR [CD4 peptide alone, Seq. Id. No. 7 (non-glycosylated)]	< 0.3 fraction (0.3 equals 30%)	< 0.3 fraction (0.3 equals 30%)
KILGNQGSFLTKGPS [CD4 peptide alone, Seq. Id. No. 6 (non-glycosylated)]	< 0.3 fraction (0.3 equals 30%)	< 0.3 fraction (0.3 equals 30%)
QFHWKNSNQIKILGN [CD4 peptide alone, Seq. Id. No. 4 (non-glycosylated)]	< 0.3 fraction (0.3 equals 30%)	< 0.3 fraction (0.3 equals 30%)
